# Data: IntAct's records for PubMed 20173330
# Target: jip4_mouse Spag9 (UniProt Q58A65)
# UniProt Q58A65, sequence (Q58A65 whole entry): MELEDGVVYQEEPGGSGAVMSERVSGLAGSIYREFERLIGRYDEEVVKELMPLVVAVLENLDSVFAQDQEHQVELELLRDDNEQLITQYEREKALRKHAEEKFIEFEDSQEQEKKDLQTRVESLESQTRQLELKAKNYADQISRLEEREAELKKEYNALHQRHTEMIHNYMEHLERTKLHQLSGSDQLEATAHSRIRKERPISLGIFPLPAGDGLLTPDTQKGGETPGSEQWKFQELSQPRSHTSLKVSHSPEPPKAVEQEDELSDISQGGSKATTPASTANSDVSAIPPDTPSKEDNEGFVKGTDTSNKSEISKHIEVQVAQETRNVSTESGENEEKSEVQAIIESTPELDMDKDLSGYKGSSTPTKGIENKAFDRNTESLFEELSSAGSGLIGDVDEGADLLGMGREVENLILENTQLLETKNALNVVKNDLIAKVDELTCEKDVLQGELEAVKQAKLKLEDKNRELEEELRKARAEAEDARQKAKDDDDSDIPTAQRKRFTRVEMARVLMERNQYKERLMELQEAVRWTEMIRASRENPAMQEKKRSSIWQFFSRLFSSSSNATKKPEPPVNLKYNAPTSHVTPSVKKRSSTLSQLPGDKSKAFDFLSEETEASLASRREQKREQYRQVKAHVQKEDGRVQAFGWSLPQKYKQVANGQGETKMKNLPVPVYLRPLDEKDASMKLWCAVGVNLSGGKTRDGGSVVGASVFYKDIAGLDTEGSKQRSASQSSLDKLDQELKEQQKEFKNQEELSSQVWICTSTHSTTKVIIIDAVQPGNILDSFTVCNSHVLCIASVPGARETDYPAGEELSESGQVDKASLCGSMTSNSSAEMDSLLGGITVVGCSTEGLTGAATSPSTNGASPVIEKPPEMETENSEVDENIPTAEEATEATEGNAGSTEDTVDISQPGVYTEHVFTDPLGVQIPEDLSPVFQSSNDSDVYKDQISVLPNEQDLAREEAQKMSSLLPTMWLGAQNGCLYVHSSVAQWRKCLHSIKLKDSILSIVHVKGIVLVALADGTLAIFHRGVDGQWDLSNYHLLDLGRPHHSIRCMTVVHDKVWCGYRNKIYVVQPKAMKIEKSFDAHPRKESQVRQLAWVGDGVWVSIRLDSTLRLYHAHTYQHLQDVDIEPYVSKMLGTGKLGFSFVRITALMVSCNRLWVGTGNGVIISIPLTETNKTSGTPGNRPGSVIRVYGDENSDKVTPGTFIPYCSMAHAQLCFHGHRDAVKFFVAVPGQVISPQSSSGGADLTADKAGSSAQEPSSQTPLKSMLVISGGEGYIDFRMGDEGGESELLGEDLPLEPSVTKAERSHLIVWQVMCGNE
row,Substance,effect of a mutation on the interaction
1,"Leucine-rich repeat serine/threonine-protein kinase 2 (Homo sapiens), Q5S007 R1441C",increasing interaction
2,"Leucine-rich repeat serine/threonine-protein kinase 2 (Homo sapiens), Q5S007 I2020T",increasing interaction
3,"Leucine-rich repeat serine/threonine-protein kinase 2 (Homo sapiens), Q5S007 Y1699C",decreasing interaction
4,"Leucine-rich repeat serine/threonine-protein kinase 2 (Homo sapiens), Q5S007 G2019S",increasing interaction
